Results taken from patent US20120020878A1, “FUSOGENIC PROPERTIES OF SAPOSIN C AND RELATED PROTEINS AND PEPTIDES FOR APPLICATION TO TRANSMEMBRANE DRUG DELIVERY SYSTEMS” (CHILDREN'S HOSPITAL MEDICAL CENTER, priority 2008, published 2012).

Key:
tumors = test: Tumor imaging experiments with SapC peptide nanovesicles; assay type: in vivo, mice; settings: peptide in phospholipid (e.g., DOPS) nanovesicles
Source text: The nanovesicles are stable and relatively uncomplicated to make. […] For example, our fluorophore-nanovesicles offer a rapid and precise imaging method for seeing and measuring the change in tumor size of living mice. The tissue-homing, imaging nanovescicles of the present invention enable the researchers and physicians to determine the location and size of a broad range of tumors, including hidden, metastatic tumors.
Several saposin C peptides were synthesized to test their activity in the nanovesicles. […] In one embodiment, the peptide comprises one of more sequences selected from the groups MCS, LCS, and VCS within the peptide sequence. In certain embodiments, amino acids, such as Lys or Cys, are required for the tumor-homing effect.

[1] = Fusion mechanism study with preformed saposin C-PS(18:1,1) liposome complexes
Description: Protein conformational changes are thought to play a role in protein-mediated membrane fusion. This fusion mechanism is evaluated using saposin C-dependent membrane fusion. First, saposin C-PS(18:1,1) liposome complexes are formed. In this saposin C-anchored membrane, protein conformation is altered. This complex is stable from pH 3 to 10, and in low concentrations of SDS solution.
Since the Trp in saposin C(0W) is embedded inside of lipid bilayer, the change of its signal is indicative of that the surrounding environment of Trp has been changed. After about 20 to 30 ms, Trp fluorescence signal decreases to the starting level. […] Shortly after this, the signal drops back to starting level signaling on end of the fusion process. […] Therefore, a conformational change of saposin C upon lipid binding is […] for its fusogenic activity.

[2] = R18 dequenching stopped-flow membrane fusion assay; settings: R18-labeled and unlabeled PS(18:1,1) vesicles
Source text: Fluorescence probes have been widely used to determine membrane fusion, such as fluorescence dequenching, and fluorescence resonance energy transfer (FET), and can be used for quantitative and kinetics analyses. The dequenching approach is used to investigate saposin C's fusogenic activity. Octadecyl rhodamine B (R18) is selected as fluorescence probe and is entrapped in internal aqueous compartment of liposomal vesicles by co-sonication with BPS or PS(18:1,1).
Fluorescence increase (dequenching) of R18 occurs upon R18 concentration decreases. After non-labeled and labeled vesicles fuse, the R18 concentration is diluted, resulting in an increase in intensity of fluorescence. R18-labeled vesicles (lipid:R18=96:4, mol:mol) are mixed with the same lipid vesicles without fluorescence probe. Stopped-flow assays are conducted to quickly mix these vesicles with saposin C or Ca^2+ ion. Time-trace curves are generated for kinetic analysis.

acid β-glucosidase = target: T1, acid β-glucosidase (Homo sapiens, UniProt P04062); test: Activation of acid β-glucosidase in liposomal reconstitution system; assay type: biochemical
T1 sequence (P04062 40-536): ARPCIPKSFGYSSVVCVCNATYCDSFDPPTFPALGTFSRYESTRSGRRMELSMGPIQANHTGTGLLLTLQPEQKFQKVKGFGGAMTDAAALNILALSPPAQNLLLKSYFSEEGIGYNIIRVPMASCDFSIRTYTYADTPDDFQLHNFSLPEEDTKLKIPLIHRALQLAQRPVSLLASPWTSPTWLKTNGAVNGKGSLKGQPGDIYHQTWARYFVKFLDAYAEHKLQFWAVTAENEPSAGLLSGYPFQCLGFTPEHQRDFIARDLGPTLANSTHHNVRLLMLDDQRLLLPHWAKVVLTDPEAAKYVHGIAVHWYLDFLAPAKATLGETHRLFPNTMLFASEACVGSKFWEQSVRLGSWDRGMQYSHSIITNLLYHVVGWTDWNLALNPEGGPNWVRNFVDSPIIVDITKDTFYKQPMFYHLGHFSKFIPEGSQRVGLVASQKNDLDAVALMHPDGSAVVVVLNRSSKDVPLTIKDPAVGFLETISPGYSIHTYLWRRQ
Description: Functional saposins were overexpressed in BL21(DE3) cells using a pET 21a series vector. Following IPTG induction at 37° C. or 30° C., large amounts of saposins containing His•Tag were found in the soluble fraction of the disrupted cells. These were conveniently purified to electrophoretic homogeneity on nickel-loaded columns. Alternatively, saposins without His•Tag were generated by introducing a stop codon after protein coding region, and then purified using immuno-affinity columns with T7-taq monoclonal antibody. […] Circular dichroism spectra, light scattering, and ES_MS analyses were used to evaluate the physical properties of the purified saposins, such as aggregation status and molecular weight. Trp-saposins without His•Tag were also generated for necessary control experiments. The functional integrity of recombinant saposin C is determined using delipidated and homogenous acid β-glucosidase in a liposomal reconstitution system and in neuritogenic assays. Recombinant saposin B function is determined using a sulfatide binding assay.

[3] = test system: cultured mouse cortical and hippocampal neurons; test: Transport into cultured neurons; assay type: cell-based; settings: facilitated by complexes with DOPS liposomes
Description: Saposin C can be transported into endosomal and lysosomal compartments using saposin-C liposomes containing long-chain anionic phospholipids. This method can be used for the treatment of neurological diseases including, for example, those in which MVB accumulation contributes to pathology and progression of disease.
Primary Cortical Neuron Cultures—Cortical neurons are cultured in serum-free Neuroblasal medium with B27 supplements as described by Whitmarsh et al.^44 Take out E16 mouse embryos, cut the head and place them into ice-cold Ca/Mg-free Hank Balance Salt Solution (HBSS) with papain (1 mg/ml). The brain is dissected out and place scalpel along the dorsal midline between the two cerebral hemispheres but slightly deviate towards to the side as it cut. This will give a clean cerebral cortex. Peel out the meninges gently without touching the medial side of the cortex where the hippocampus is located. Cut out the cortex with curved fine surgical scissors and collect them in ice-cold HBSS. The cortical tissue is replaced in papain HBSS solution for 15-20 minutes at room temperature to soften up the tissues. Transfer them to papain-inhibitor solution for another 5 minutes at room temperature and finally back to 2 ml ice-cold HBSS. Fisherbran 12-546 (18CIR-2) coverglasses in 12-well plate are coated with PEI containing laminin overnight. […]

[4] = Vesicle size change determination (N4 plus submicron particle sizer)
Source text: The amino acid residues 51-67 are necessary, but not sufficient, for its optimal enzymatic activation function. The disulfide structure and conformational alteration of saposin C upon lipid binding are also required for this activity. Three approaches are used for this study: (1) stopped-flow monitoring reduction of self-quenching resulting from fusion of fluorescence probe-containing vesicle with non-fluorescent vesicle induced by saposin C; (2) monitoring the lipid vesicle size changes upon addition of saposin C to vesicles, the size distribution as determined using N4 plus submicron particle sizer (Coulter Co.); (3) monitoring intrinsic fluorescence of Trp-saposin C change during liposomal fusion.
Electron microscopy (EM) is used for vesicle fusion analysis, since the size of fused vesicles is bigger than those of non-fused. N4 plus submicron particle size is used to estimate particle sizes in the range of 3 nm to 3 um since most liposomes fit in this range. Sonication conditions with a cup sonicator give mono-dispersed BPS-liposomes with ˜200 nm in size. Upon addition of saposin C, these vesicles change to a larger size up to 2-3 um. The size increase is related to vesicles fusion as shown by the above dequenching experiments.
Saposin C promotes the size changes at ˜50 nM concentration. To define the regions responsible for this fusion property, peptides containing only 50% of the NH2-terminal or 50% of the COOH-terminal halves in saposin C are tested. Both peptides show fusion activity.

[5] = Stopped-flow Trp fluorescence of saposin C/liposome complex formation; assay type: binding; settings: PS(18:1,1) or BPS vesicles
Source text: To investigate temporal and spatial interactions of saposins and liposomal membrane, fluorescence stopped-flow and quenching approaches are used with Trp as the intrinsic fluorescence probe of the saposins. These experiments allow identification of regional interactions between saposins and lipid bilayers, and also the kinetics of their binding.
This binding induces change is lipid-concentration dependent and requires at least one unsaturated fatty acid chain. To evaluate the kinetics of this interaction, stopped-flow experiments are conducted the change in fluorescence during saposin C/liposome complex formation is monitored. When saposin C(0W) is mixed with PS(18:1,1) or BPS vesicles, fluorescence of Trp is increased, but the time course of this change is undetectable due to limitation of the machine's capability. Apparently, the interaction of saposin C and unsaturated PS containing membranes occurs within at least 10 ms.

**Q.** For EKEILDAFDKMCSKLPK [Saposin E24-K41], which tumor-homing function (tumors) is on record?
**A.** optimal tumor-homing function

**Q.** For “EVCEFLVKEVTKLIDNNKTEKEILDAFDKMCSKLP [Saposin E6-P40, SapC peptide E6-P40]”, which tumor-homing function (tumors) is on record?
**A.** tumor-homing function

**Q.** Which tumor-homing function (tumors) does the source give for FDKMCSKLPK [F32 to K41] here?
**A.** tumor-homing function

**Q.** With “KSLSEECQEVVDTYGSSILSILLEEVSPELVCSMLHLCSG [Saposin K41-G80, SapC peptide K41-G80]” as the molecule, how does the tumor-homing function (tumors) read?
**A.** tumor-homing function

**Q.** With “SPELVCSMLHLCSG [Saposin S67-G80, SapC peptide S67-G80]” as the molecule, how does the tumor-homing function (tumors) read?
**A.** tumor-homing function

B1: Saposin C: saposin C (SapC, a small lysosomal protein, 80 AA); recombinant, produced in E. coli (protein)
chain: SDVYCEVCEFLVKEVTKLIDNNKTEKEILDAFDKMCSKLPKSLSEECQEVVDTYGSSILSILLEEVSPELVCSMLHLCSG
modifications: left off: small tags and cut ends
notes: saposin C (SapC, a small lysosomal protein, 80 AA); recombinant, produced in E. coli
**Q.** With B1 as the molecule, how does the “fusogenic activity when bound to lipid membrane” value [1] read?
**A.** retains the fusogenic activity

**Q.** What about the “kinetics of induced membrane fusion” value [2] of the same molecule?
**A.** the same kinetics as those with Ca^2+

**Q.** And the “activation of acid β-glucosidase” value (acid β-glucosidase; purified recombinant protein)?
**A.** excellent activation

**Q.** What about the transport into neurons [3] of the same molecule?
**A.** transported into the cultured mouse cortical and hippocampal neurons

**Q.** And the “concentration that promotes the size changes” value [4]?
**A.** ~50 nM

**Q.** What about the “vesicle size upon addition of saposin C” value ([4]; mono-dispersed BPS-liposomes of ˜200 nm before addition) of the same molecule?
**A.** 2-3 um

**Q.** And the vesicle size change ([4]; pH 4.7, 10 min period)?
**A.** enlarges vesicle size

**Q.** What about the vesicle size change ([4]; pH 7.4, 10 min period) of the same molecule?
**A.** not

**Q.** What about the “time within which interaction with unsaturated PS containing membranes occurs” value [5] of the same molecule?
**A.** ≤ 10 ms

B2: saposin C(S37W): saposin C with a Trp at residue 37 (i.e., in the middle) (protein, UniProt P07602 311-390, looked up, variant S37W)
Saposin-C: SDVYCEVCEFLVKEVTKLIDNNKTEKEILDAFDKMCWKLPKSLSEECQEVVDTYGSSILSILLEEVSPELVCSMLHLCSG
modifications: Saposin-C
**Q.** With B2 as the molecule, how does the “effect of Trp substitution on activation properties” value (acid β-glucosidase) read?
**A.** no effect
